The values below come from PMC4162405 (Cell reports, 2014).

First the molecules themselves.
B1: Polymerase eta (Polη), purified human (enzyme, UniProt Q9Y253 1-713, looked up)
chain: MATGQDRVVALVDMDCFFVQVEQRQNPHLRNKPCAVVQYKSWKGGGIIAVSYEARAFGVTRSMWADDAKKLCPDLLLAQVRESRGKANLTKYREASVEVMEIMSRFAVIERASIDEAYVDLTSAVQERLQKLQGQPISADLLPSTYIEGLPQGPTTAEETVQKEGMRKQGLFQWLDSLQIDNLTSPDLQLTVGAVIVEEMRAAIERETGFQCSAGISHNKVLAKLACGLNKPNRQTLVSHGSVPQLFSQMPIRKIRSLGGKLGASVIEILGIEYMGELTQFTESQLQSHFGEKNGSWLYAMCRGIEHDPVKPRQLPKTIGCSKNFPGKTALATREQVQWWLLQLAQELEERLTKDRNDNDRVATQLVVSIRVQGDKRLSSLRRCCALTRYDAHKMSHDAFTVIKNCNTSGIQTEWSPPLTMLFLCATKFSASAPSSSTDITSFLSSDPSSLPKVPVTSSEAKTQGSGPAVTATKKATTSLESFFQKAAERQKVKEASLSSLTAPTQAPMSNSPSKPSLPFQTSQSTGTEPFFKQKSLLLKQKQLNNSSVSSPQQNPWSNCKALPNSLPTEYPGCVPVCEGVSKLEESSKATPAEMDLAHNSQSMHASSASKSVLEVTQKATPNPSLLAAEDQVPCEKCGSLVPVWDMPEHMDYHFALELQKSFLQPHSSNPQVVSAVSHQGKRNPKSPLACTNKRPRPEGMQTLESFFKPLTH

For experiment [1], the target named is T1, purified human PALB2 (Partner and localizer of BRCA2) (human, UniProt Q86YC2 1-1186).
T1 sequence (looked up): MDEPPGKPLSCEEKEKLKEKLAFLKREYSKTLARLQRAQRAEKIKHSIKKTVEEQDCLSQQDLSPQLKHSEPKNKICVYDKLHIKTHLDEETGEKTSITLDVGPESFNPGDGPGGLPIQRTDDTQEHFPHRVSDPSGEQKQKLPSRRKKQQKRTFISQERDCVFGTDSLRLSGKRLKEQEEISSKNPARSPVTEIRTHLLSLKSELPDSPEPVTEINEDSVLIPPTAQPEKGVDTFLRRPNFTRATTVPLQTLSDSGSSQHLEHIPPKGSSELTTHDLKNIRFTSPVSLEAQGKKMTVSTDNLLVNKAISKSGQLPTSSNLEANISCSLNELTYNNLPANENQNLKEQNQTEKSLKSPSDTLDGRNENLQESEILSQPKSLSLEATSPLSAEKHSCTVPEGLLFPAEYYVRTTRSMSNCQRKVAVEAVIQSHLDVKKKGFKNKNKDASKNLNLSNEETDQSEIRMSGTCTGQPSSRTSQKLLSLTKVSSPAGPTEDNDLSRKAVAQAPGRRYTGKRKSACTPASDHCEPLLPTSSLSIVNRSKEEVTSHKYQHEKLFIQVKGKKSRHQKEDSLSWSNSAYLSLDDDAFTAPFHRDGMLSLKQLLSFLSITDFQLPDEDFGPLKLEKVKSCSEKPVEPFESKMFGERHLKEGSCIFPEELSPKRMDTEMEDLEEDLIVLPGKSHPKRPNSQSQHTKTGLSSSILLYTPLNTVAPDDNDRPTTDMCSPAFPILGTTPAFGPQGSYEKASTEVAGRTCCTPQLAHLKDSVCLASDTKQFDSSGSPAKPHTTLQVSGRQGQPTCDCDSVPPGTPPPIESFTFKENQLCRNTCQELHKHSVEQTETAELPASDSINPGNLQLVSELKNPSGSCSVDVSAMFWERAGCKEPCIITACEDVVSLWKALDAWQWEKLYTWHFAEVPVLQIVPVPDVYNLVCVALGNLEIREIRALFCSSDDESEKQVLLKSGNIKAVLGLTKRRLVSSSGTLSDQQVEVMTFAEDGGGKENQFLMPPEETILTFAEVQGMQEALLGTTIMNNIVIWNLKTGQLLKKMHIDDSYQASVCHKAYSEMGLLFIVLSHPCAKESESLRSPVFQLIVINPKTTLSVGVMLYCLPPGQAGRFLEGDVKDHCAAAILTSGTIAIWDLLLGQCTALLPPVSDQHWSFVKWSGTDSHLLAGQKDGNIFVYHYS
Description: co-IP.

For experiment [2], the target named is B1. Description: co-IP.
The target of experiment [3] is B1. Description: pull-down.

With B1, in experiment [1], the binding result was “binds”.

B2: GST-BRCA2 truncation 4 (residues 1338–1781) (domain or fragment, human, UniProt P51587 1338-1781, looked up)
chain: GSDSSKNDTVCIHKDETDLLFTDQHNICLKLSGQFMKEGNTQIKEDLSDLTFLEVAKAQEACHGNTSNKEQLTATKTEQNIKDFETSDTFFQTASGKNISVAKESFNKIVNFFDQKPEELHNFSLNSELHSDIRKNKMDILSYEETDIVKHKILKESVPVGTGNQLVTFQGQPERDEKIKEPTLLGFHTASGKKVKIAKESLDKVKNLFDEKEQGTSEITSFSHQWAKTLKYREACKDLELACETIEITAAPKCKEMQNSLNNDKNLVSIETVVPPKLLSDNLCRQTENLKTSKSIFLKVKVHENVEKETAKSPATCYTNQSPYSVIENSALAFYTSCSRKTSVSQTSLLEAKKWLREGIFDGQPERINTADYVGNYLYENNSNSTIAENDKNHLSEKQDTYLSNSSMSNSYSYHSDEVYNDSGYLSKNKLDSGIEPVLKNVED
Consider B2, for which, in experiment [2], the binding result was “binds”.

B3: GST-PALB2 WD40 domain (residues 853–1186) (domain or fragment, human, UniProt Q86YC2 853-1186, looked up)
chain: GNLQLVSELKNPSGSCSVDVSAMFWERAGCKEPCIITACEDVVSLWKALDAWQWEKLYTWHFAEVPVLQIVPVPDVYNLVCVALGNLEIREIRALFCSSDDESEKQVLLKSGNIKAVLGLTKRRLVSSSGTLSDQQVEVMTFAEDGGGKENQFLMPPEETILTFAEVQGMQEALLGTTIMNNIVIWNLKTGQLLKKMHIDDSYQASVCHKAYSEMGLLFIVLSHPCAKESESLRSPVFQLIVINPKTTLSVGVMLYCLPPGQAGRFLEGDVKDHCAAAILTSGTIAIWDLLLGQCTALLPPVSDQHWSFVKWSGTDSHLLAGQKDGNIFVYHYS
As to B3, the binding result in experiment [3] is listed as “binds”.
